Here are results for two substances from patent EP4582451A1.

The target in experiment [1] is human thyroid-stimulating hormone receptor (TSHR) (human) (UniProt P16473). The experiment can be described thus: flow cytometry (FACS), 293 cells overexpressing human TSHR; negative control. (In flow cytometry, cells or beads pass a laser one at a time.)
Experiment [2] concerns the target mouse thyroid-stimulating hormone receptor (TSHR) (mouse) (UniProt P47750). Put plainly: flow cytometry (FACS), 293 cells overexpressing mouse TSHR; negative control.
The target of experiment [3] is monkey thyroid-stimulating hormone receptor (TSHR) (monkey). Put plainly: flow cytometry (FACS), 293 cells overexpressing monkey TSHR; negative control.
Chain of monkey thyroid-stimulating hormone receptor (TSHR) (monkey) (A0A2K5 entry or part of it limits assumed, form in doubt): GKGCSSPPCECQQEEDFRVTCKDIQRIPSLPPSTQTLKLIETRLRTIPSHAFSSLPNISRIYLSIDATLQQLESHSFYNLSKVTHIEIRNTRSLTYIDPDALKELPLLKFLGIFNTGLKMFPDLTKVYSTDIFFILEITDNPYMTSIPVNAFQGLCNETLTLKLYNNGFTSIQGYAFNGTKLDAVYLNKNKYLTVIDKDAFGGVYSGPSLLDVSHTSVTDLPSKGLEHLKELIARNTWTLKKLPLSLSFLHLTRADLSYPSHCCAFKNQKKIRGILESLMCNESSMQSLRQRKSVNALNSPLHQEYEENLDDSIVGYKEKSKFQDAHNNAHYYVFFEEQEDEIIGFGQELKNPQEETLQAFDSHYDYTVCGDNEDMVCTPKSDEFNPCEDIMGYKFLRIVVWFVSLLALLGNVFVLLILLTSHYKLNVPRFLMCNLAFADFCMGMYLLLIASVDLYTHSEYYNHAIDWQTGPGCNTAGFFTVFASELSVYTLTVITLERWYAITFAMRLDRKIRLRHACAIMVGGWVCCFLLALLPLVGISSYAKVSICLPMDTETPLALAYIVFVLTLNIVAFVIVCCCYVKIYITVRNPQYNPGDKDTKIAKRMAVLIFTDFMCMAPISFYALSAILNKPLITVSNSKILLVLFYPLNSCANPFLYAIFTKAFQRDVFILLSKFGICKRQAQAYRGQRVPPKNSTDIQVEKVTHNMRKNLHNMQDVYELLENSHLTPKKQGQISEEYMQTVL

Chain of mouse thyroid-stimulating hormone receptor (TSHR) (mouse) (P47750 22-764): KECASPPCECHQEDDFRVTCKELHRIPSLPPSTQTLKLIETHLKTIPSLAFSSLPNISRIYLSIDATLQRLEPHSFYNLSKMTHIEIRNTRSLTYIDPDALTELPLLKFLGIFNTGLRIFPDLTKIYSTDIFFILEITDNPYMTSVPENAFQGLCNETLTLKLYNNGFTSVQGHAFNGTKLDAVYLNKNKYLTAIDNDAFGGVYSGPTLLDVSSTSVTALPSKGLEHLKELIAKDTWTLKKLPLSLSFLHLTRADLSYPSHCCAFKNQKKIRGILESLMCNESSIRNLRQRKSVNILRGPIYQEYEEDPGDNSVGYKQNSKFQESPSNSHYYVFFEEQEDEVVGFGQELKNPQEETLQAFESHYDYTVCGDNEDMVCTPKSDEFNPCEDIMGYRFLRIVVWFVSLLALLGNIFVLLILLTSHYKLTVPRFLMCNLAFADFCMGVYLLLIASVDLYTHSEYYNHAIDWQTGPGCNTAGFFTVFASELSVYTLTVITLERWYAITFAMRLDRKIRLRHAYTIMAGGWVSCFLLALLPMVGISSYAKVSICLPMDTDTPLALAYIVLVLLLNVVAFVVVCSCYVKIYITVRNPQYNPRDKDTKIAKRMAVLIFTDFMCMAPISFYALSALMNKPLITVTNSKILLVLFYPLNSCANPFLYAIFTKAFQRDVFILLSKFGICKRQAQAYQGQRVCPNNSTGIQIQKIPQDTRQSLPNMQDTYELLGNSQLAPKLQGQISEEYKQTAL
Chain of human thyroid-stimulating hormone receptor (TSHR) (human) (P16473 21-764): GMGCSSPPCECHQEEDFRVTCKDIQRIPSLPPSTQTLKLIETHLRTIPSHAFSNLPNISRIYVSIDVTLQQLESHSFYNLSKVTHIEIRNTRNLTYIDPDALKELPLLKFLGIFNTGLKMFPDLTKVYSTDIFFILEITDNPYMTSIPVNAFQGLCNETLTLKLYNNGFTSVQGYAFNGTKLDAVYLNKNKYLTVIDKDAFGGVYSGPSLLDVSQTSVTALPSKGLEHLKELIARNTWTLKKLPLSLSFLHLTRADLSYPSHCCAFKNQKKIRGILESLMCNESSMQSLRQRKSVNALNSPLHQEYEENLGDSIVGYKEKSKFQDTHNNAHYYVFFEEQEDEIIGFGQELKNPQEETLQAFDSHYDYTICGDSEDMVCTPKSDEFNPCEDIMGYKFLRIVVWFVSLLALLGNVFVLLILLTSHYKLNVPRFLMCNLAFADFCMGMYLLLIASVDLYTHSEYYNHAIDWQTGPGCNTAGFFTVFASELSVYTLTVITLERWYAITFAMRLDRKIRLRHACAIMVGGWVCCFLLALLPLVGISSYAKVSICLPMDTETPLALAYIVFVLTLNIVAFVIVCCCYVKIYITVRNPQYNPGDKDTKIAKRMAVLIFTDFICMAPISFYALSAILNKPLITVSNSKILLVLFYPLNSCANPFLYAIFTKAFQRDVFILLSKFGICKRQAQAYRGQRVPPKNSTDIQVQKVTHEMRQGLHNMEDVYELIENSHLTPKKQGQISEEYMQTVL

“hIgG1 negative control (Biointron B117901) (antibody)”: the Max MFI in experiment [1] amounted to 3590; in experiment [2], 2130; in experiment [3], 3560.

For the substance “hIgG4 negative control (Biointron B107804) (antibody)”, the Max MFI in experiment [1] is 1690; in experiment [2], 1530; in experiment [3] it was 1770.
